# Literature values in publication PMC5535775.
# Biological target: DIAPH1 FH1 (Homo sapiens) (UniProt O60610)
# Experiment: NMR
# Chain of UniProt O60610 (O60610 580-767): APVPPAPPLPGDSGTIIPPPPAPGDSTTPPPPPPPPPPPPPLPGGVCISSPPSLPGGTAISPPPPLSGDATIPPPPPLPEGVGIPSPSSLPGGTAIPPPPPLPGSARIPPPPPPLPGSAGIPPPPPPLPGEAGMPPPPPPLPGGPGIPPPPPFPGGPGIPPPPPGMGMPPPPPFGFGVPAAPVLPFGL
substance,measurement,value
RAGE cytoplasmic domain (from UniProt Q15109),Kd,< 10 µM
